Reference: publication PMC7341526

Target: vitreous collagen fibrils (rabbit), in the collagen-containing pellet (rabbit (endogenous in rabbit vitreous))
Test: co-sedimentation; vitreous of uninjected rabbit eyes digested with hyaluronan lyase (24 h, 37 °C), centrifuged 13 000g 30 min; opticin in supernatant and collagen-containing pellet quantified by SRM-MS

percent of opticin in the collagen-containing pellet: 6%
Substance: endogenous rabbit opticin (natural protein)
